Measured values reported in patent publication US20220089761A1.

Target: CD20 receptor on WIL2-S cell line (human) (UniProt P11836)
Experiment: flow cytometry on WIL2-S cells, detection with anti-human Fc-PE

UniProt P11836, sequence (P11836 whole entry): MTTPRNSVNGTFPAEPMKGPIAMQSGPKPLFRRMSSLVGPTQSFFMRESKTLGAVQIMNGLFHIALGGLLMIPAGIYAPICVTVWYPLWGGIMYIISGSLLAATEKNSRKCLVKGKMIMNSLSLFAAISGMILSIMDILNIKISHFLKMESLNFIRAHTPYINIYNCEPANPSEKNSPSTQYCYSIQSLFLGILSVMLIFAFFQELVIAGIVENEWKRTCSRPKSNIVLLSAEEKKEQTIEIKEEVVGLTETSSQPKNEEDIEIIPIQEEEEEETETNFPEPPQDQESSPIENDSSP

- EC50 (read off the curve): 1 µg/mL
Substance: MabThera (Rituximab) (antibody)
